The record followed here is the supplement of paper PMC11780869.

This data set concerns Bacillus subtilis. As to the kind of experiment: cleaved RNA product abundance (RNA/gDNA barcode ratio) relative to median wild-type variant (ratio to wild type); higher = more accumulation of the downstream cleavage product. The procedure, abridged:
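Cleaved product abundance was measured with barcoded reporter mRNAs (truncated aprE or tetM) carrying mutagenized RNase Y cleavage-site windows in the B. subtilis chromosome. Cultures in LB at 37°C grew from OD600 0.0003 to 0.3. Gel-selected cleaved RNA was reverse transcribed and barcode-sequenced with genomic DNA barcodes, and the RNA:gDNA barcode ratio per construct was scaled to the median construct bearing the unmutated site.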

The mark [1] stands for this setting: experiment (reporter, strain, medium): exp 2b: truncated aprE reporter, strain BJT200, cleavage site: cggR-gapA (positions -7 to +36 mutated).
The mark [2] stands for this setting: experiment (reporter, strain, medium): exp 4a: truncated aprE reporter, strain BJT201 with 2% xylose (RNase J1 expressed), cleavage site: cggR-gapA (positions -7 to +36 mutated).
Setting [3] is: experiment (reporter, strain, medium): exp 8a: truncated aprE reporter, strain BJT201 with 2% xylose (RNase J1 expressed), cleavage site: glnRA (positions -5 to +31 mutated).

With “ACAGACGAAGGAGCCGCAAAGAAGTCATTAAGGGATGAATAATCCCACAATATAAATATCTCTCACTTATTTAAA”, the “cleaved RNA product abundance” value under setting [1] turned out to be 0.142 and the “cleaved RNA product abundance” value under setting [2] is 0.2.

In the case of “ACAGACGAAGGAGCCGCAAAGAAGTTATTAAGAGATGAATAATCCCTCAATATAAATGTCTCTCACTTATTTAAA”, the “cleaved RNA product abundance” value under setting [2] is 0.0916.

“ACAGACGAAGGAGCCGCAAAGAAGATATTAAGGGATGAATAATCACTCAATATAAATATCTCTCACTTATTTAAA”: the “cleaved RNA product abundance” value under setting [1] was 0.145 and the “cleaved RNA product abundance” value under setting [2] amounted to 0.143.

On to “ACAGACGAAGGAGCCGCAAAGAAGTTTTTAATGGATGAATAATCCCTCAATATAAATATCTCTCACTTATTTAAA”, for which the “cleaved RNA product abundance” value under setting [2] was found to be 0.175.

In the case of “CGACATGTCCCGCTTCTTTCATTAATCCGTTCCCAACTGTTTTGCTATATACATTTACCTTTTAAGAGGAGGAAT”, the “cleaved RNA product abundance” value under setting [3] is 0.392.

“CGACATGTCCCGCTTCTTTCATTAATCCGTTAGCAACTGATTTGCTATATACATTTATCTTTTAAGAGGAGGAAT”: the “cleaved RNA product abundance” value under setting [3] turned out to be 1.36.

In the case of “ACAGACGAAGGAGCCGCAAAGAAGTTATTAAGGGATGAATAATCCCCCAATATAAATAACTCTCACTTATTTAAA”, the “cleaved RNA product abundance” value under setting [2] was found to be 0.347.

On to “ACAGACGAAGGAGCCGCAAAGAAGTTATTAAGGGATGGATAATCCGTCAATATAAATATCTCTCACTTATTTAAA”, for which, under setting [2], the “cleaved RNA product abundance” value came out at 0.149.

For the sequence “ACAGACGAAGGAGCCGCAAAGAAGTTCTTAAGAGATGAATAATCCCTCAATATAAATATCTCTCACTTATTTAAA”, the “cleaved RNA product abundance” value under setting [2] was 0.117.

In the case of “CGACATGTCCCGCTTCTTTCATTAACCCGTTAGAAACTGTTTTGCTATATACATTTACCTTTTAAGAGGAGGAAT”, under setting [3], the “cleaved RNA product abundance” value amounted to 0.187.

On to “ACAGACGAAGGAGCCGCAAAGAAGTTATTAAGGGATGAATAAACCCTCCATATAAATATCTCTCACTTATTTAAA”, for which, under setting [2], the “cleaved RNA product abundance” value was 0.162.

Consider “CGACATGTCCCGCTTCTTTCATTATTCCGTGAGCAACTGTTTTGCTATATACATTTACCTTTTAAGAGGAGGAAT”, for which the “cleaved RNA product abundance” value under setting [3] came to 0.62.

Turning to “CGACATGTCCCGCTTCTTTCATTAATCCGTTCGAAACTGTTTTGCTATATACATTTACCTTTTAAGAGGAGGAAT”, the “cleaved RNA product abundance” value under setting [3] was determined as 0.347.

Consider “CGACATGTCCCGCTTCTTTCATTAATCCGTCCGCAACTGTTTTGCTATATACATTTACCTTTTAAGAGGAGGAAT”, for which, under setting [3], the “cleaved RNA product abundance” value came to 0.264.

Consider “ACAGACGAAGGAGCCGCAAAGAAGTTATTAAGGGTTGAATAATCCCTCAATATAAATATCTCTCACTTATTTAAA”, for which the “cleaved RNA product abundance” value reads like this: under setting [1], 0.396; under setting [2], 0.483; (experiment (reporter, strain, medium): exp 6: tetM reporter, strain 168, cleavage site: cggR-gapA (positions -7 to +36 mutated)) 0.439.

On to “ACAGACGAAGGAGCCGCAAAGATGTTATAAAGGGATGAATAATCCCTCAATATAAATATCTCTCACTTATTTAAA”, for which the “cleaved RNA product abundance” value runs as follows: under setting [1], 0.259; under setting [2], 0.441.

Regarding “ACAGACGAAGGAGCCGCAAAGGAGTTTTTAAGGGATGAATAATCCCTCAATATAAATATCTCTCACTTATTTAAA”, the “cleaved RNA product abundance” value under setting [2] is 0.369.

Turning to “ACAGACGAAGGAGCCGCAAAGAACTTATTAAGGGATGAATAATCCCTCAGTATAAATATCTCTCACTTATTTAAA”, the “cleaved RNA product abundance” value worked out at 0.128 under setting [1] and 0.309 under setting [2].

“CGACATGTCCCGCTTCTTTCATTAATCTGTTAGCAACTGTTTTGGTATATACATTTACCTTTTAAGAGGAGGAAT”: the “cleaved RNA product abundance” value under setting [3] is 0.264.

As to “ACAGACGAAGGAGCCGCAAAGAAGTTATTAAGAGATGTATAATCCCTCAATATAAATATCTCTCACTTATTTAAA”, under setting [2], the “cleaved RNA product abundance” value is 0.229.

As to “ACAGACGAAGGAGCCGCAAAGAACTTATTAAGGGATGACTAATCCCTCAATATAAATATCTCTCACTTATTTAAA”, the “cleaved RNA product abundance” value under setting [2] came to 0.382.

Turning to “ACAGACGAAGGAGCCGCAAAGAAGTTATTAAGGGAGGAATAATCCCTGAATATAAATATCTCTCACTTATTTAAA”, the “cleaved RNA product abundance” value under setting [2] is 0.635.

Turning to “CGACATGTCCCGCTTCTTTCATTAATCCGTTAGCAACCCTTTTGCTATATACATTTACCTTTTAAGAGGAGGAAT”, the “cleaved RNA product abundance” value under setting [3] is 0.451.

On to “ACAGACGAAGGAGCCGCAAAGAAGTTATTAAGGGATGAATACTTCCTCAATATAAATATCTCTCACTTATTTAAA”, for which the “cleaved RNA product abundance” value was 0.156 under setting [1] and 0.247 under setting [2].

For “CGACATGTCCCGCTTCTTTCATTACTCCGTTAGCAACTATTTTGCTATATACATTTACCTTTTAAGAGGAGGAAT”, the “cleaved RNA product abundance” value under setting [3] is 1.31.

For “ACAGACGAAGGAGCCGCAAAGAAATTATTAAGAGATGAATAATCCCTCAATATAAATATCTCTCACTTATTTAAA”, the “cleaved RNA product abundance” value was found to be 0.121 under setting [1] and 0.112 under setting [2].

“CGACATGTCCCGCTTCTTTCATTAATCCGTTATCAACTATTTTGCTATATACATTTACCTTTTAAGAGGAGGAAT”: under setting [3], the “cleaved RNA product abundance” value turned out to be 0.276.

“ACAGACGAAGGAGCCGCAAAGAAGTTATTAAGAGATGCATAATCCCTCAATATAAATATCTCTCACTTATTTAAA”: the “cleaved RNA product abundance” value by setting is: under setting [1], 0.117; under setting [2], 0.158.

In the case of “ACAGACGAAGGAGCCGCAAACAAGTTATTAAGGGATGAATAATCCCTAAATATAAATATCTCTCACTTATTTAAA”, the “cleaved RNA product abundance” value under setting [2] worked out at 0.47.

With “ACAGACGAAGGAGCCGCAAAGAAGTTATTAATGGATGAATAATCCCTTAATATAAATATCTCTCACTTATTTAAA”, the “cleaved RNA product abundance” value stood at 0.806 under setting [1] and 0.625 under setting [2].

Turning to “ACAGACGAAGGAGCCGCAAAGAAGTTATAAAGGGATGCATAATCCCTCAATATAAATATCTCTCACTTATTTAAA”, the “cleaved RNA product abundance” value by setting is: under setting [1], 0.309; under setting [2], 0.241.

“ACAGACGAAGGAGCCGCATAGAAGTTATTAAGGGATGAATAACCCCTCAATATAAATATCTCTCACTTATTTAAA”: the “cleaved RNA product abundance” value under setting [1] worked out at 0.457.

Regarding “ACAGACGAAGGAGCCGCAAAGAAGTTATTAAGGGATGAATAATCCCTCATATAAATATCTCTCACTTATTTAAAG”, the “cleaved RNA product abundance” value reads like this: under setting [1], 0.394; under setting [2], 0.256.

“CGACATGTCCCGCTTCTTTCATTAATCCGTTAACAACTGTTTTGCTATATAGATTTACCTTTTAAGAGGAGGAAT”: the “cleaved RNA product abundance” value under setting [3] is 0.201.

On to “ACAGACGAAGGAGCCGCAAAGAATTTATTAAGGGATGAATAATCCCTCAATATTAATATCTCTCACTTATTTAAA”, for which, under setting [1], the “cleaved RNA product abundance” value was 0.109.

In the case of “ACAGACGAAGGAGCCGCAAAGAAATTATTAATGTATGAATAATCCCTCAATATAAATATCTCTCACTTATTTAAA”, the “cleaved RNA product abundance” value runs as follows: under setting [1], 0.117; under setting [2], 0.111.

With “CGACATGTCCCGCTTCTTTCATTAATTCGTTAGCAACTGTTATGCTATATACATTTACCTTTTAAGAGGAGGAAT”, the “cleaved RNA product abundance” value under setting [3] was found to be 1.05.

In the case of “ACAGACGAAGGAGCCGCAAAGAAGTTATTAAGGGATAAATAAACCCTCAATATAAATATCTCTCACTTATTTAAA”, the “cleaved RNA product abundance” value under setting [2] amounted to 0.445.

Turning to “CGACATGTCCCGCTTCTTTCATTAAACCGTTAGCAACTGTTATGCTATATACATTTACCTTTTAAGAGGAGGAAT”, the “cleaved RNA product abundance” value under setting [3] worked out at 0.552.

Take “ACAGACGAAGGAGCCGCAAAGAATTTATTAAGGGATGAATAATCCCACAATATAAATATCTCTCACTTATTTAAA”: under setting [2], the “cleaved RNA product abundance” value is 0.259.

As for “ACAGACGAAGGAGCCGCAAAGAAGTTATTAAGGGAAGAATAATCCCTAAATATAAATATCTCTCACTTATTTAAA”, the “cleaved RNA product abundance” value under setting [2] came out at 0.326.
